The text below walks through data of article PMC5400778.

The target of this experiment is His-tagged BG505 SOSIP.664 trimer with the N185h glycan site removed (HIV (isolate BG505)) (UniProt Q2N0S6). Nature of the experiment: SPR; Biacore 3000, 25°C; His-tagged BG505 SOSIP trimers immobilised on the chip by His-tag capture; PGT145 Fab as analyte; kinetic analysis.

B1: PGT145 Fab (Fab, V domains shown)
VH: QVQLVQSGAEVKKPGSSVKVSCKASGNSFSNHDVHWVRQATGQGLEWMGWMSHEGDKTGLAQKFQGRVTITRDSGASTVYMELRGLTADDTAIYYCLTGSKHRLRDYFLYNEYGPNYEEWGDYLATLDVWGHGTAVTVSS
VL: EVVITQSPLFLPVTPGEAASLSCKCSHSLQHSTGANYLAWYLQRPGQTPRLLIHLATHRASGVPDRFSGSGSGTDFTLKISRVESDDVGTYYCMQGLHSPWTFGQGTKVEIK
Turning to B1, the stoichiometry N (usually the number of molecules, sites or subunits per partner or assembly) turned out to be 0.96.
